Measured values from patent US20040043949A1.

Legend:
[1] = target: Mod.Caspase 3/172(NS5A/B) (human) (UniProt P42574); assay: cell-based or functional assay
[2] = target: modified BID with an HCV NS3 cleavage site (human) (UniProt P55957); assay: cell-based or functional assay

Question: How did the cell death, FACS analysis of living EGFP positive CHOP cells, (+) NS3 Protease [1] turn out when “HCV NS3/NS4A protease (from UniProt P27958 1027-1657; P27958 1658-1711) (enzyme)” was run?
Answer: > 30 % cell death

Question: And the cell death, FACS analysis of living EGFP positive CHOP cells, (+) NS3 Protease [2]?
Answer: > 30 % cell death

Question: With “single-chain HCV protease (NS4A-NS3) (from UniProt P27958 1678-1689; P27958 1029-1207) (enzyme)” as the substance, how does the AnnexinV positive H9C2 cells, FACS, 24 hours (% more cells than control) [2] read?
Answer: 50

Question: And the AnnexinV positive H9C2 cells, FACS, 24 hours, no VAD-fmk [2]?
Answer: 60%
